One block for each binder: values may come before it.
What was measured:
[1] = molecular target: T1, rhPSMA, extracellular part of human PSMA (residues 44-750) with its native N-terminus (human, UniProt Q04609 44-750, N-glycosylated (made in Schneider S2 insect cells)); assay: ELISA on coated rhPSMA; G4 taken as the sixth candidate
T1 construct: range 44-750; No tag; also called wild-type rhPSMA; rhGCPII
Procedure: 50 μL of rhPSMA (5 μg/mL in TBS) was directly adsorbed onto the surface of a MaxiSorp 96-well plate overnight at 4° C. Similarly, ovalbumin-coated wells (10 μg/mL in PBS) were used as a negative control. After blocking with 250 μL of 2% w/v BSA for 1 h at room temperature, 50 μL from a serial Anticalin dilution in PBS was added to each well and incubated for 1 h. The plates were washed three times and bound Anticalins were detected with StrepTactin-AP as described further above. The data were analyzed using Prism 5 software (GraphPad) and absorption values (A) were fitted according to the formula ΔA=Aₘₐₓ·[Lₜₒₜ]/(KD+[Lₜₒₜ]) with the concentration of the applied lipocalin variant [Lₜₒₜ] and the dissociation constant KD.
Specific binding activities of selected Anticalins toward rhPSMA as well as apparent affinity constants were initially determined by ELISA in 96-well Maxisorp plates coated with the recombinant wild-type PSMA protein. Anticalins were applied in a dilution series and detected via the C-terminal Strep-tag II. Five of the six analyzed Anticalin candidates specifically recognized PSMA with apparent dissociation constants (K₀ values) ranging from 6 to 42 nM, for A3 and H3, respectively (FIG. 4). For comparison, binding activity towards ovalbumin, which served as a negative control, was negligible. The G4 clone was later found to bind the anti-FLAG antibody (not shown).

[2] = molecular target: T2, full-length human PSMA expressed on cells (HEK293T/PSMA transfectants, LNCaP) (human, UniProt Q04609 1-750); assay: immunofluorescence microscopy on fixed, permeabilized cells
T2 construct: whole, on cells; Transfected in HEK293T/17 cells, endogenous in LNCaP cells; In the Western blot it stood in SDS cell lysates; also called full length wild-type PSMA; cellular PSMA
T2 sequence (Q04609 whole entry): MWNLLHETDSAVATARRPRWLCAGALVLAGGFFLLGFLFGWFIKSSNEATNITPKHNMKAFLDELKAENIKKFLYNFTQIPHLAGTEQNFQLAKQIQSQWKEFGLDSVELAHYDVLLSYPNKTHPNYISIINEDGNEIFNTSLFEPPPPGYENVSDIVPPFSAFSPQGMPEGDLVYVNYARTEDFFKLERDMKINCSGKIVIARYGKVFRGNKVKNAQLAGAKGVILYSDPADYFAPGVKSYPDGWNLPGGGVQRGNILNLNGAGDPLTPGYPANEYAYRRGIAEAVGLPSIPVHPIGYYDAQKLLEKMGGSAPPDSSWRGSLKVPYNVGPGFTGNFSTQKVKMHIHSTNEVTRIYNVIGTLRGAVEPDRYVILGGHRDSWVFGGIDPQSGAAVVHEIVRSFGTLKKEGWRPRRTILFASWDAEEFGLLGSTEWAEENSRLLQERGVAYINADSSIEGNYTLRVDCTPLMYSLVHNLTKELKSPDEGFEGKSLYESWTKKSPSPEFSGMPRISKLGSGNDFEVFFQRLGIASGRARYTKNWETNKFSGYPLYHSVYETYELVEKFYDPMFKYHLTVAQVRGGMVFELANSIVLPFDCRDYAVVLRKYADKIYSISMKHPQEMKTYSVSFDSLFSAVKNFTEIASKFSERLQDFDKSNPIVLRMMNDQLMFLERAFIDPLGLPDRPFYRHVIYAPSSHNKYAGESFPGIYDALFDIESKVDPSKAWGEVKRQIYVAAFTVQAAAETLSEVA
Procedure: PSMA-positive and -negative cells grown on cover slides coated with gelatin (0.1% w/v) were washed twice with PBS, fixed with 4% w/v paraformaldehyde in PBS for 15 min, permeabilized by treatment with PBS containing 0.1% v/v Triton X-100 for 15 min, and incubated in the blocking solution (5% w/v non-fat dried milk/PBS) for 30 min at room temperature (RT). Cells were then incubated with 0.5 μM Anticalin in 5% w/v non-fat dried milk/PBS for 45 min at RT followed by incubation with a Strep-tag II specific monoclonal antibody StrepMAB-Immo (2 μg/mL in PBS/0.05% Tween-20; IBA, 2-1517) for 1 h at RT. An anti-mouse secondary antibody conjugated to Alexa Fluor 488 (5 μg/mL in PBS/0.05% Tween-20; Life Technologies, A11029) served as detection reagent and was applied for 1 h at RT. All incubation steps were interspersed by extensive washing with PBS/0.05% Tween-20. […]
For immunofluorescence microscopy, the different cell lines were fixed with paraformaldehyde on glass coverslips and permeabilized. Following a blocking step, cells were probed with the Anticalin A3A5, which was detected by a murine antibody (StrepMAB-Immo) recognizing the Strep-tag II and an Alexa Fluor 488-labeled anti-mouse secondary antibody. […] Also, when wild-type Lcn2 was used instead of the Anticalin A3A5, no fluorescent staining was detected. […]

T1 sequence (Q04609 44-750 limits assumed): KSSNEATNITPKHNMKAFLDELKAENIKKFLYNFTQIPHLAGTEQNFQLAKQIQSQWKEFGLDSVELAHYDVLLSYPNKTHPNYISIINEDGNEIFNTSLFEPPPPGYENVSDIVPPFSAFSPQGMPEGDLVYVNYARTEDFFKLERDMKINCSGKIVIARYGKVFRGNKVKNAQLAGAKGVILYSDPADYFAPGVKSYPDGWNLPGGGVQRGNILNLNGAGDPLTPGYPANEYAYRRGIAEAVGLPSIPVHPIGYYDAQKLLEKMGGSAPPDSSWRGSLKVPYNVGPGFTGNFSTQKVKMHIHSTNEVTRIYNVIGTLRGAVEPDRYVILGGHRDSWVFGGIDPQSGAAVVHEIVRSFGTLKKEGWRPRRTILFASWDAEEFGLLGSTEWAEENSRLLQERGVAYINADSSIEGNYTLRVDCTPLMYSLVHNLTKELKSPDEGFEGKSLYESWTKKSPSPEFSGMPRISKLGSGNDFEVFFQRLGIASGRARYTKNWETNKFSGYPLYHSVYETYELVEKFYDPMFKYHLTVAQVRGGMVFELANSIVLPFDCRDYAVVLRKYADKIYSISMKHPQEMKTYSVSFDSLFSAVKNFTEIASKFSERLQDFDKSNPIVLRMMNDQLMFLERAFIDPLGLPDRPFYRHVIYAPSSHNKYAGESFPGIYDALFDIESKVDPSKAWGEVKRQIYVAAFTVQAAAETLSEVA

binding result [1]: no binding
B1: Anticalin candidate G4 (designed binder)
chain: QDSTSDLIPAPPLSKVPLQQNFQDNQFHGKWYVVGHAGNMLLREDKDPSKMVATIYELKEDKSYNVTQVDFGTKKCFYAINTFVPGSQPGEFTLGHIKSNPGMTSMLVRVVSTNYNQHAMVFFKAVLQNREGFLITLYGRTKELTSELKENFIRFSKSLGLPENHIVFPVPIDQCIDG
notes: also called G4 clone; not shown: C-terminal Strep-tag II

binding result [2]: no binding (tested: 0.5 µM)
B2: wild-type Lcn2 (other)
chain: QDSTSDLIPAPPLSKVPLQQNFQDNQFQGKWYVVGLAGNAILREDKDPQKMYATIYELKEDKSYNVTSVLFRKKKCDYWIRTFVPGCQPGEFTLGNIKSYPGLTSYLVRVVSTNYNQHAMVFFKKVSQNREYFKITLYGRTKELTSELKENFIRFSKSLGLPENHIVFPVPIDQCIDG
notes: Negative control in microscopy and flow cytometry; also called wt Lcn2; lipocalin 2

— patent US20180318451A1 (published 2018)
